B1: Alpha-parvin (Homo sapiens), Q9NVD7 (parent)
chain: MATSPQKSPSVPKSPTPKSPPSRKKDDSFLGKLGGTLARRKKAKEVSELQEEGMNAINLPLSPIPFELDPEDTMLEENEVRTMVDPNSRSDPKLQELMKVLIDWINDVLVGERIIVKDLAEDLYDGQVLQKLFEKLESEKLNVAEVTQSEIAQKQKLQTVLEKINETLKLPPRSIKWNVDSVHAKSLVAILHLLVALSQYFRAPIRLPDHVSIQVVVVQKREGILQSRQIQEEITGNTEALSGRHERDAFDTLFDHAPDKLNVVKKTLITFVNKHLNKLNLEVTELETQFADGVYLVLLMGLLEGYFVPLHSFFLTPDSFEQKVLNVSFAFELMQDGGLEKPKPRPEDIVNCDLKSTLRVLYNLFTKYRNVE
partner: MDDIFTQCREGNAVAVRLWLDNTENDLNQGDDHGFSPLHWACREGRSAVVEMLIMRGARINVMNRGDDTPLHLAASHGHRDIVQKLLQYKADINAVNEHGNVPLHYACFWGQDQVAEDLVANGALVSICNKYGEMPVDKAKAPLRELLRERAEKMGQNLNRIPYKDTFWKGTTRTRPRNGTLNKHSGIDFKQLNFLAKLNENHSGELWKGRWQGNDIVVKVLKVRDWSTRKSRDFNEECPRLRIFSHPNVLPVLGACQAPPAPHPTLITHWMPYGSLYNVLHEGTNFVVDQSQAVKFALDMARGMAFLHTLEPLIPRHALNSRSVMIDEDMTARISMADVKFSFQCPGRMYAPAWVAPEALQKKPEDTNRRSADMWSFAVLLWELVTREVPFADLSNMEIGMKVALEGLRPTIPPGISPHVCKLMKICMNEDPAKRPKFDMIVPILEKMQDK

Variants of: B1
Details: with ilk_mouse Ilk

| effect of a mutation on the interaction | Variant |
| --- | --- |
| disrupting interaction strength | MATSPQKSPSVPKSPTPKSPPSRKKDDSFLGKLGGTLARRKKAKEVSELQEEGMNAINLPLSPIPFELDPEDTMLEENEVRTMVDPNSRSDPKLQELMKVLIDWINDVLVGERIIVKDLAEDLYDGQVLQKLFEKLESEKLNVAEVTQSEIAQKQKLQTVLEKINETLKLPPRSIKWNVDSVHAKSLVAILHLLVALSQYFRAPIRLPDHVSIQVVVVQKREGILQSRQIQEEITGNTEALSGRHERDAFDTLFDHAPDKLNVVKKTLITDVNKHLNKLNLEVTELETQFADGVYLVLLMGLLEGYFVPLHSFFLTPDSFEQKVLNVSFAFELMQDGGLEKPKPRPEDIVNCDLKSTLRVLYNLFTKYRNVE [F271D] |

Reference: IntAct's records for PubMed 11331308
